Each substance was assayed against NTAP-tagged TRAPPC8 (assay: co-IP (IP: anti-Myc, immunoblot)). Details: 0.5% input, parent: 1.
Work on “Mouse OFD1, wild type (from UniProt Q80Z25) A80T” yielded a ratio to parent of 1.04. With “Mouse OFD1, wild type (from UniProt Q80Z25) G139S” the ratio to parent was 1. “Mouse OFD1, wild type (from UniProt Q80Z25) S437R” was tested, and the ratio to parent was 1.02. “Mouse OFD1, wild type (from UniProt Q80Z25) S75F” gave a ratio to parent of 0.7.
